B1: Cas1 protein of the CRISPR3-Cas system from S. thermophilus DGCC7710, bearing a StrepII tag (natural protein, Streptococcus thermophilus DGCC7710)
chain: MAGWRTVVVNIHSKLSYKNNHLIFRNSYKTEMIHLSEIDILLLETTDIVLTTMLVKRLVDENILVIFCDDKRLPTAFLTPYYARHDSSLQIARQIAWKENVKCEVWTAIIAQKILNQSYYLGECSFFEKSQSIMELYHGLERFDPSNREGHSARIYFNTLFGNDFTRESDNDINAALDYGYTLLLSMFAREVVVCGCMTQIGLKHANQFNQFNLASDIMEPFRPIIDRIVYQNRHNNFVKIKKELFSIFSETYLYNGKEMYLSNIVSDYTKKVIKALNQLGEEIPEFRI
notes: Cas1 of the type II-A CRISPR3-Cas system, Streptococcus thermophilus DGCC7710; cloned into pETDUET-1 (pCas1Strep); Forms dimers with two conformations (Cas1A, Cas1B) in the structures; also called StCas1; Strep-tagged Cas1; source: E. coli BL21 (DE3), co-expressed with the rest of the CRISPR3-Cas locus, in lysate; purified as a complex (Strep-Trap HP, Superdex S200) for cryo-EM; not shown: …

Tests used:
[1] = molecular target: the molecule itself; assay: cryo-EM structure; Strep-Trap- and SEC-purified Cas9-Cas1-Cas2-Csn2 sample after DNase I treatment and gel filtration (25 mM Tris pH 7.5, 150 mM NaCl, 1 mM TCEP), graphene oxide coated grids; monomer Cas1_(8)-Cas2_(4)-Csn2_(8) at 3.2 Å (D2), dimer Cas1_(24)-Cas2_(12)-Csn2_(16) at 7.2 Å (D2), filament unit at 7.7 Å (D2); duplex DNA in the central channel
[2] = molecular target: B1; assay: pull-down; StrepII-tagged Cas1 co-expressed in E. coli with the CRISPR3-Cas locus (all four proteins; also the variants lacking Cas9, the CRISPR array or tracrRNA); StrepTrap column, then size-exclusion chromatography (Superdex S200), SDS-PAGE; 10 mM Tris-HCl pH 7.5, 300 mM KCl, 1 mM EDTA, 1 mM DTT; settings: partners not purified

| binding result [2] | Binder | stoichiometry N [1] |
| --- | --- | --- |
|  | B1 | 2 |
| binds | Cas2 protein of the CRISPR3-Cas system from S. thermophilus DGCC7710 (natural protein, Streptococcus thermophilus DGCC7710, Cas2 of the type II-A CRISPR3-Cas system, Streptococcus thermophilus DGCC7710; expressed from the CRISPR3 locus plasmid; source: E. coli BL21 (DE3), expressed from the CRISPR3 locus plasmid (pCas1- and derivatives), in lysate; purified as a complex (Strep-Trap HP, Superdex S200) for cryo-EM) MSYRYMRMILMFDMPTDTAEERKAYRKFRKFLLSEGFIMHQFSVYSKLLLNHTANTAMVGRLKANNPKKGNITILTVTEKQFARMIYLYGDKNTSIANSEERLVFLGDNYCDED | 2 |
|  | Csn2 protein of the CRISPR3-Cas system from S. thermophilus DGCC7710 (natural protein, Streptococcus thermophilus DGCC7710, Csn2 of the type II-A CRISPR3-Cas system, Streptococcus thermophilus DGCC7710; expressed from the CRISPR3 locus plasmid; Tetramer (dimer of dimers, conformations Csn2A and Csn2B) in the structures; one Ca2+ per chain modelled; also called StCsn2; Csn2A; source: E. coli BL21 (DE3), expressed from the CRISPR3 locus plasmid (pCas1- and derivatives), in lysate; purified as a complex (Strep-Trap HP, …)) MKINFSLLDEPMEVNLGTVLVIEDVSVFAQLVKEFYQYDEQSNLTIFDSKIRSIRSSELLLITDILGYDINTSQVLKLLHTDIVSQLNDKPEVRSEIDSLVSLITDIIMAECIENELDIEYDEITLLELIKALGVRIETKSCTVFEKIFEILQIFKYLVKKRILVFVNSLSYFSKDEIYQILEYTKLSQADVLFLEPRQIEGIQQFILDKDYILMPYNN | 4 |

From publication PMC6620040, “Structure of the DNA-Bound Spacer Capture Complex of a Type II CRISPR-Cas System” (Molecular Cell, 2019)
